From patent publication US9617330B2, “Chemorepulsion of cells” (Celtaxsys, Inc., priority 2006, dated 2017) come the findings set out here.

Experiment [1] deals with B cells. Description: High throughput transmigration assay (Example 9), chemorepulsion. The experiment is classed as cell-based, human. Also noted: key: ratio of chemorepulsion (CR) to spontaneous migration (SM), CR/SM. An excerpt:
(§1) An agent's repellent index is the ratio of chemorepulsion (CR) to spontaneous migration (SM) induced by the agent, i.e., [(CR)/(SM)]. […] For example, in calculating a RI for an agent, migratory responses including chemorepulsion (CR) and spontaneous migration (SM) may be measured over several decades or log scales of concentration. If, over any two consecutive measurements at concentrations which differ by at least 10 fold, the ratio of CR to SM at each of the two contiguous measurements is equal to or greater than 1.2, then the agent is considered a validated chemorepellent.
(§2) For primary human T cells, up to 80 ml of blood is drawn from a human donor in sodium heparin Vacutainer tubes (Becton-Dickinson). The blood (between 10 and 15 ml per tube) is then layered onto 30 ml of Lymphocyte Separation Medium (LSM) (Cellgro, Herndon, Va.) in a 50 ml conical centrifuge tube and centrifuged for 20 minutes at 2440×g in a swinging bucket rotor. After removing the majority of the plasma from the top of each tube, the peripheral blood mononucleocyte (PBMC) layer is removed and transferred to fresh 50 ml conical centrifuge tubes. The tubes are then filled to 50 ml with IMDM and centrifuged for 10 minutes at 500×g. All but approximately 5 ml of the supernatant is then removed and the pellet resuspended with 25 ml IMDM and the centrifugation repeated. After removal of the supernatant, the cells are resuspended and combined to one 50 ml tube (per subject) and brought to a total volume of 50 ml. The cells are then counted using a hemacytometer (Reichert). After centrifugation under the same conditions, the supernatant is removed and the cells processed using the appropriate Miltenyi Biotec (Auburn, Calif.) negative selection kit to enrich for the desired cell type according to manufacturers instructions. The resulting purified cells are then diluted to 50 ml with IMDM. After centrifugation at 500×g for 10 minutes, the supernatant is removed and the cells resuspended in 15 ml IMDM supplemented with 0.5% heat inactivated fetal calf serum (FCS) (ATCC, Manassas, Va.). After another centrifugation for 10 minutes at 500×g, the supernatant is again removed and the cells resuspended in 7 ml 0.5% FCS in IMDM (assay medium) and transferred to a 15 ml conical centrifuge tube. The cells are then quantitated using a hemacytometer. When enriching for monocytes, the concentration of cells is adjusted to 2×10^7 per ml by centrifugation and removal of the appropriate volume of assay medium. For all other cell types, the tube cap is replaced with one from a 25 cm^2 tissue culture flask (Corning) and the cells stored overnight in a humidified 37° C. incubator with 5% CO2. The concentration of the cells is adjusted as for monocytes just prior to transmigration assay of Example 9.
(§3) Migration away from a chemical or biological agent (chemorepulsion (CR)) was measured using ChemoTx plates (Neuroprobe). These plates contain a planar polycarbonate or polyester membrane that has been etched and perforated so that cells can move along the etched tracks and fall through perforation holes, enabling the cells to be collected and the number of migrated cells quantified (FIGS. 5-6). Several dilutions (normally 4 in 10-fold increments) are prepared of the agent of interest. For neutrophils, plates with 3 μm pore membranes are used, while for all other primary cell types, 5 μm pore membranes are used. Membranes may, or may not, be coated with polyvinylpyrrolidine (PVP) as a wetting agent.
(§4) For spontaneous migration controls and chemorepulsion (CR) assays, 31 μl of assay medium is pipetted into the lower well of the transmigration apparatus (FIGS. 5-6). For spontaneous migration controls and chemoattraction (CA) assays, 29 μl of assay medium is pipetted into upper chamber of the transmigration apparatus (FIG. 5). For CR, the upper well assay medium contains the agent or candidate chemorepellent. […]

For experiment [2], the system named is Monocytes. The description is as above. The experiment is classed as cell-based, human. Particulars: mean of three donors at concentration of highest activity, range 0.00125-1.25 μM.
Text: as §1, §2
It is noted that this procedure may be used to isolate and/or purify monocytes. In the monocyte purification method, a further step is included for platelet removal via the use of CD61 microbeads also purchased from Miltenyi Biotec (Auburn, Calif.).
as §3
For spontaneous migration controls and chemorepulsion (CR) assays, 31 μl of assay medium is pipetted into the lower well of the transmigration apparatus (FIGS. 5-6). […]

Experiment [3] concerns Human primary CD8+ lymphocytes. Description: Trans-well migration assay (Example 3 method), unimodal fugetaxin test. The experiment is classed as cell-based. Further details: key: A “+” in the Table indicates a positive hit as a unimodal fugetaxin, as that term is defined herein, for that particular cell type. As to conditions: methods of Example 3.
Experiment [4] relates to Human primary CD4+ lymphocytes. The description is as above. Format: cell-based. Also noted: key: A “+” in the Table indicates a positive hit as a unimodal fugetaxin, as that term is defined herein, for that particular cell type. Particulars: methods of Example 3.
Experiment [5] deals with Eo-HL60 (HL-60 clone 15 differentiated to eosinophil-like phenotype). As to the kind of experiment: Trans-well migration assay (Example 1), net migratory response. The experiment is classed as cell-based, human. As to conditions: net observed response.
Experiment [6] has as its system Neutrophils. As to the kind of experiment: High throughput transmigration assay (Example 9), chemorepulsion. The experiment is classed as cell-based, human. As to conditions: Neutrophils, mean of three donors at concentration of highest activity.
Experiment [7] relates to Human primary neutrophils. Description: Trans-well migration assay (Example 3 method), unimodal fugetaxin test. Format: cell-based. Further details: key to Unimodal fugetaxin hit, Neutrophils: A “+” in the Table indicates a positive hit as a unimodal fugetaxin, as that term is defined herein, for that particular cell type. As to conditions: human neutrophils; methods of Example 3.

Experiment [8] deals with CD8+. As to the kind of experiment: High throughput transmigration assay (Example 9), chemorepulsion. The experiment is classed as cell-based, human. Particulars: mean of three donors at concentration of highest activity.
Text: as §1, §2, §3, §4

Experiment [9] has as its system Monocyte. Description: Trans-well migration assay (Example 1), net migratory response. Particulars: Monocyte; net observed response.
Procedure: Prior to beginning the assay 0.5% Fetal Calf Serum (FCS) in Iscove's Modified Dulbecco's Medium (IMDM) is prepared and stored on ice (Assay Medium). Migratory cells at a concentration of 2×10^7 cells/ml are suspended in Assay Medium. T-cells isolated from donor blood or buffy coats are allowed to rest overnight in Assay Medium at 37° C. in 5% CO2. Neutrophils, monocytes and B cells are utilized as soon as they are purified from donor blood or other source of human origin. Four serial (10×) dilutions of the ligand are then prepared in Assay Medium (normally 10 μg/ml to 0.01 μg/ml).
Plates are removed from the packaging, leaving the membrane behind and intact. The membrane is set aside. Into each well is pipetted 31 μl of solution. For media controls and fugetaxis (chemorepellent) samples, Assay Medium is used. For chemoattraction samples, the appropriate dilution of agent in assay medium is used.
Using a sterile needle, all small bubbles present in each well are popped and the membrane is carefully placed onto the plate, starting at one side and slowly lowering the other edge onto the plate.
Then 29 μl is pipetted into each circle imprinted on the polycarbonate or polyester membrane. For media controls and chemoattraction samples, Assay Medium is used. For fugetaxis (chemorepellent) samples, the appropriate dilution of ligand in assay medium is used.
To each 29 uL aliquot above is added 2 μl of cells (40,000 cells). It is important to ensure that before beginning the cells are well suspended and that they are mixed. This mixing can be accomplished by agitating the tube between each addition.
The plate is then covered with the supplied lid and incubated 1-3 hours in a humidified incubator at 37° C. in 5% CO2. Following the incubation period, the liquid from the top of the plate is removed with a tissue or similar blotting material (e.g. a Kimwipe). The membrane is carefully removed from the top of the plate and discarded. […] Using a multichannel pipettor, each well of the microplate is rinsed with 25 μl Phosphate Buffered Saline (Mediatech #21-040-CV) and transferred to the same wells in the white microplate. Using a multichannel pipettor, 50 μl CellTiter-Glo Luminescent Cell Viability Assay (Promega #G7572) is added to each well and mixed.
The plate is read using the Perkin Elmer Victor^3V plate reader using the Large Aperture Luminescence setting at 8 mm height above the plate with a dwell time of 1 s to quantify the number of migrated cells.
The results reported reflect the net observed migratory response of the cells to the ligand and are not based on the definition of unimodal fugetaxins.
Setting [10] is: mean of three donors at concentration of highest activity, range 0.00125-1.25 μM.

As for CCL2: chemokine, the “Repellent Index” value in experiment [1] (setting [10]) worked out at 1.5; in experiment [2], 1.7.
CCL7: chemokine: the “Repellent Index” value in experiment [2] is recorded as 2.3.
The same measure, in the same setting: for CCL13: chemokine the value was 2.6.
With Pam3CSK4 [reference compound], the “Unimodal fugetaxin hit, CD8+” value in [3] is listed as “+”. Further, in experiment [4], the “Unimodal fugetaxin hit, CD4+” value is listed as “+”. In experiment [5], the “Migratory Response” value is “chemorepulsion”. Besides, in [6] (range 0.00125-1.25 μM), the “Repellent Index” value is 4.9. For the same molecule, the “Unimodal fugetaxin hit, Neutrophils” value in experiment [7] was “+”.

B1: Semaphorin 3A: semaphorin (protein, UniProt Q14563 21-771, looked up)
Semaphorin-3A: NYQNGKNNVPRLKLSYKEMLESNNVITFNGLANSSSYHTFLLDEERSRLYVGAKDHIFSFDLVNIKDFQKIVWPVSYTRRDECKWAGKDILKECANFIKVLKAYNQTHLYACGTGAFHPICTYIEIGHHPEDNIFKLENSHFENGRGKSPYDPKLLTASLLIDGELYSGTAADFMGRDFAIFRTLGHHHPIRTEQHDSRWLNDPKFISAHLISESDNPEDDKVYFFFRENAIDGEHSGKATHARIGQICKNDFGGHRSLVNKWTTFLKARLICSVPGPNGIDTHFDELQDVFLMNFKDPKNPVVYGVFTTSSNIFKGSAVCMYSMSDVRRVFLGPYAHRDGPNYQWVPYQGRVPYPRPGTCPSKTFGGFDSTKDLPDDVITFARSHPAMYNPVFPMNNRPIVIKTDVNYQFTQIVVDRVDAEDGQYDVMFIGTDVGTVLKVVSIPKETWYDLEEVLLEEMTVFREPTAISAMELSTKQQQLYIGSTAGVAQLPLHRCDIYGKACAECCLARDPYCAWDGSACSRYFPTAKRRTRRQDIRNGDPLTHCSDLHHDNHHGHSPEERIIYGVENSSTFLECSPKSQRALVYWQFQRRNEERKEEIRVDDHIIRTDQGLLLRSLQQKDSGNYLCHAVEHGFIQTLLKVTLEVIDTEHLEELLHKDDDGDGSKTKEMSNSMTPSQKVWYRDFMQLINHPNLNTMDEFCEQVWKRDRKQRRQRPGHTPGNSNKWKHLQENKKGRNRRTHEFERAPRSV
Take B1: the “Repellent Index” value is recorded as 1.3 in experiment [8] (range 0.01-10 μM); 1.87 ± 0.40 in [1] (0.00125 μM, one donor, triplicate, ± SD); 2.07 ± 0.52 in experiment [1] (0.0125 μM, one donor, triplicate, ± SD); 2.39 ± 0.71 in [1] (0.125 μM, one donor, triplicate, ± SD); 2.16 ± 0.28 in experiment [1] (1.25 μM, one donor, triplicate, ± SD); 1.6 in [1] (mean of three donors at concentration of highest activity, range 0.01-10 μM).

B2: CCL15: chemokine (protein, UniProt Q16663 22-113, looked up)
C-C motif chemokine 15: QFTNDAETELMMSKLPLENPVVLNSFHFAADCCTSYISQSIPCSLMKSYFETSSECSKPGVIFLTKKGRQVCAKPSGPGVQDCMKKLKPYSI
Turning to B2, in experiment [2], the “Repellent Index” value is 1.4.

B3: HSP47 Human: heat shock protein; accession AAP35758 (protein, UniProt P50454 19-418, looked up)
Serpin H1: AEVKKPAAAAAPGTAEKLSPKAATLAERSAGLAFSLYQAMAKDQAVENILVSPVVVASSLGLVSLGGKATTASQAKAVLSAEQLRDEEVHAGLGELLRSLSNSTARNVTWKLGSRLYGPSSVSFADDFVRSSKQHYNCEHSKINFRDKRSALQSINEWAAQTTDGKLPEVTKDVERTDGALLVNAMFFKPHWDEKFHHKMVDNRGFMVTRSYTVGVMMMHRTGLYNYYDDEKEKLQIVEMPLAHKLSSLIILMPHHVEPLERLEKLLTKEQLKIWMGKMQKKAVAISLPKGVVEVTHDLQKHLAGLGLTEAIDKNKADLSRMSGKKDLYLASVFHATAFELDTDGNPFDQDIYGREELRSPKLFYADHPFIFLVRDTQSGSLLFIGRLVRPKGDKMRDEL
Regarding B3, the results for the “Repellent Index” value in [8] (range 0.00125-1.25 μM), in [1] (setting [10]) and in experiment [6] (range 0.00125-1.25 μM) were 1.4, 1.5 and 1.4, respectively. Moreover, the “Migratory Response” value in experiment [5] was “chemorepulsion”.

B4: CXCL7: chemokine (protein, UniProt P02775 35-128, looked up)
Platelet basic protein: SSTKGQTKRNLAKGKEESLDSDLYAELRCMCIKTTSGIHPKNIQSLEVIGKGTHCNQVEVIATLKDGRKICLDPDAPRIKKIVQKKLAGDESAD
In the case of B4, the entries for the “Repellent Index” value in experiment [6] (range 0.00125-1.25 μM) and in experiment [2] were 3.9 and 1.4, respectively.

B5: S. typhimurium Flagellin: TLR ligand; accession M11332 (protein, UniProt P06179 2-495, looked up)
Flagellin: AQVINTNSLSLLTQNNLNKSQSALGTAIERLSSGLRINSAKDDAAGQAIANRFTANIKGLTQASRNANDGISIAQTTEGALNEINNNLQRVRELAVQSANSTNSQSDLDSIQAEITQRLNEIDRVSGQTQFNGVKVLAQDNTLTIQVGANDGETIDIDLKQINSQTLGLDTLNVQQKYKVSDTAATVTGYADTTIALDNSTFKASATGLGGTDQKIDGDLKFDDTTGKYYAKVTVTGGTGKDGYYEVSVDKTNGEVTLAGGATSPLTGGLPATATEDVKNVQVANADLTEAKAALTAAGVTGTASVVKMSYTDNNGKTIDGGLAVKVGDDYYSATQNKDGSISINTTKYTADDGTSKTALNKLGGADGKTEVVSIGGKTYAASKAEGHNFKAQPDLAEAAATTTENPLQKIDAALAQVDTLRSDLGAVQNRFNSAITNLGNTVNNLTSARSRIEDSDYATEVSNMSRAQILQQAGTSVLAQANQVPQNVLSLLR
For the molecule B5, the “Unimodal fugetaxin hit, CD8+” value in [3] is recorded as “+”. Besides, the “Migratory Response” value in experiment [9] is “chemorepulsion”. Further, in experiment [4], the “Unimodal fugetaxin hit, CD4+” value is “+”. Further, the “Repellent Index” value in experiment [1] (mean of three donors at concentration of highest activity, range 0.01-10 μg/ml) worked out at 1.7; in experiment [6] (range 0.01-10 μg/ml), 5.5. In addition, in [7], the “Unimodal fugetaxin hit, Neutrophils” value is “+”.

B6: HSP25: heat shock protein; accession AAA37862 (protein, UniProt P14602 1-209, looked up)
Heat shock protein beta-1: MTERRVPFSLLRSPSWEPFRDWYPAHSRLFDQAFGVPRLPDEWSQWFSAAGWPGYVRPLPAATAEGPAAVTLAAPAFSRALNRQLSSGVSEIRQTADRWRVSLDVNHFAPEELTVKTKEGVVEITGKHEERQDEHGYISRCFTRKYTLPPGVDPTLVSSSLSPEGTLTVEAPLPKAVTQSAEITIPVTFEARAQIGGPEAGKSEQSGAK
As for B6, the “Repellent Index” value in [8] (range 0.00125-1.25 μM) is 1.3; in experiment [6] (range 0.00125-1.25 μM), 11.9. In addition, in experiment [7], the “Unimodal fugetaxin hit, Neutrophils” value is reported as “+”.

B7: CCL8: chemokine (protein, UniProt P80075 24-99, looked up)
C-C motif chemokine 8: QPDSVSIPITCCFNVINRKIPIQRLESYTRITNIQCPKEAVIFKTKRGKEVCADPKERWVRDSMKHLDQIFQNLKP
In the case of B7, the figures for the “Repellent Index” value in experiment [1] (setting [10]) and in experiment [2] were 2.6 and 2.3, respectively.
